Substitutions are numbered along the chain they refer to.
T1: IL-1R1 on MRC-5 cells (ATCC CCL-171) (human, UniProt P14778 18-569)
T1 sequence (looked up): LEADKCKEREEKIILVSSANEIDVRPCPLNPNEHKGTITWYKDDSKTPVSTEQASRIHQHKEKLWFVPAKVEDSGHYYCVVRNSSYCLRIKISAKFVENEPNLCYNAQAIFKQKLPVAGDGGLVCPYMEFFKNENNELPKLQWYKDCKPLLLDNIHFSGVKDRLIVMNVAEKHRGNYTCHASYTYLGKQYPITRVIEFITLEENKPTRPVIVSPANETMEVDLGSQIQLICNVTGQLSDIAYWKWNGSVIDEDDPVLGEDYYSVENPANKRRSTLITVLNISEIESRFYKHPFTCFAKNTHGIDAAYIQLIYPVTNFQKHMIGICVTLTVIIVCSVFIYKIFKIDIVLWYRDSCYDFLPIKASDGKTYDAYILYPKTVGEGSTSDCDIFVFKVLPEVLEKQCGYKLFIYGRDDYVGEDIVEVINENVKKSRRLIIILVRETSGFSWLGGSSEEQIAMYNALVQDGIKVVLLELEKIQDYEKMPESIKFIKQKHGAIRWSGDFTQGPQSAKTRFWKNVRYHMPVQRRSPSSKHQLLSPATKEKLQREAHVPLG

B1: DOM4-122-6 (other)
VL: DIQMTQSPSSLSASVGDRVTITCRASQWIGRELRWYQQKPGKAPMFLIYHASRLQSGVPSRFSGSGSGTDFTLTISSLQPEDFATYYCQQYHGWPLTFGQGTKVEIKR
B2: DOM4-129-1 (other)
VL: B1 VL with W28N, G30D, S56R, G93D, W94F
B3: DOM4-122-23 (other)
VL: B1 VL with S56R

biological target: T1, IL-1R1 on MRC-5 cells (ATCC CCL-171); experiment: cell-based or functional assay

B1 and B2 are the same in “ND50, inhibition of IL-1-induced IL-8 release from MRC-5 cells” value: roughly 10 nM for the first, roughly 10 nM for the second.

In the case of B3, the “ND50, inhibition of IL-1-induced IL-8 release from MRC-5 cells” value is reported as roughly 1 nM.

From patent US20090155283A1 (published 2009)
